According to patent publication US6222018, “Hypoxia inducible factor-1 and method of use” (The Johns Hopkins University School of Medicine):

Legend:
[1] = molecular target: T1, HIF-1 (HIF-1alpha/HIF-1beta (ARNT) heterodimer), affinity-purified (Homo sapiens, UniProt Q16665;P27540 Q16665:1-826,P27540:2-789); test: EMSA; competed by unlabeled W18 but not M18; buffer Z-100; conditions: tags: none; from CoCl2-treated HeLa S3 cells or hypoxic Hep3B cells; chain copies: heterodimer (inferred), higher-order form also seen; 5' gatc overhangs
Procedure: Nuclear extracts were fractionated by DEAE-Sepharose chromatography, and fractions containing HIF-1 activity were applied to a W18 DNA affinity column. 5 ug of protein were incubated with 0.1 ug of calf thymus DNA for gel shift analysis of crude nuclear extract (Crude NE, lane 1) and HIF-1 active fractions from DEAE-Sepharose columns (DEAE, lane 2). For fractions from the W18 column (lanes 3–13), 1 ul aliquots were incubated with 5 ng of calf thymus DNA. The positions of the two HIF-1 bands, constitutive activity (C), nonspecific activity (NS), and free probe (F) are indicated. FT, flowthrough, 0.25M, 0.5M, 1M, and 2M are fractions eluted with indicated concentration of KCl in buffer Z. Figure 3B: FIG. 3B is an autoradiograph showing sequence-specific DNA binding of the partially purified fractions described in the legend to FIG. 3A. 5 ug aliquots of fractions from the DEAE-Sepharose column were incubated with W18 probe in the presence of no competitor (lane 1), 10-fold (lanes 2 and 5), 50-fold (lanes 3 and 6), or 250-fold (lanes 4 and 7) molar excess of unlabeled W18 (W, lanes 2–4) or M18 (M, lanes 5–7) oligonucleotide.
Since HIF-1 DNA binding activity from hypoxic Hep3B cells and CoCl_2-treated HeLa cells are indistinguishable (Example 1), HeLa S3 cells treated with 125 uM CoCl_2 were used as starting material for the large scale purification of HIF-1. […]

[2] = molecular target: T2, endogenous HIF-1 in hypoxic Hep3B cells (Homo sapiens, UniProt Q16665;P27540 Q16665:1-826,P27540:2-789); test: cell_activity; pPFKL3svcat, three copies, 1% vs 20% O2; conditions: chain copies: heterodimer (inferred); 5' GATC overhang
Procedure: (§1) Plasmids were purified by alkaline lysis and two rounds of cesium chloride density gradient centrifugation. Hep3B cells were transfected by electroporation with a Gene Pulser (Bio-Rad) at 260 V and 960 microfarads. Duplicate electroporations were pooled and split onto two 10 cm tissue culture dishes (Corning) containing 8 ml of media. Cells were allowed to recover for 24 h in a 5% CO_2 95% air incubator at 37° C., the media was replaced, and one set of duplicate plates was removed to a modular incubator chamber, which was flushed with 1% O_2, 5% CO_2, balance N_2, sealed, and placed at 37° C. Cells were harvested 72 h after transfection, and extracts were prepared for CAT and β-galactosidase activity.
(§2) To determine whether these HIF-1 binding sites were of functional importance, transient expression essays were performed using the reporter genes described above. Reporter plasmids were cotransfected into Hep3B cells with pSVβgal, which was included as a control for variation in transfection efficiency. Transfected cells were split among duplicate plates that were cultured in 1 or 20% O_2 for 48 h, CAT and β-galactosidase protein synthesized following transcription of reporter and control plasmids, respectively, were quantitated from cellular extracts. […]
(§3) HIF-1 binding site sequences from glycolytic genes were analyzed in the same assay. […]

[3] = molecular target: T1, HIF-1 (HIF-1alpha/HIF-1beta (ARNT) …); test: competition; up to 250-fold excess M18 does not compete; HIF-1 flows through M18 column; conditions: tags: none; from CoCl2-treated HeLa S3 cells or hypoxic Hep3B cells; chain copies: heterodimer (inferred), higher-order form also seen; 5' gatc overhangs
[4] = molecular target: T2, endogenous HIF-1 in hypoxic Hep3B cells; test: cell_activity; pPGK2svcat, two copies, 1% vs 20% O2; conditions: chain copies: heterodimer (inferred); 5' GATC overhang
Procedure: as §1, §2, §3

[5] = molecular target: T2, endogenous HIF-1 in hypoxic Hep3B cells; test: cell_activity; psvcatEPO2, two copies, 1% vs 20% O2; one copy 4.9-fold; conditions: chain copies: heterodimer (inferred)
Description: Oligonucleotides were cloned into the BglII and BamHI sites located 5' and 3' to the transcription unit, respectively. Plasmids pNMHcat and pHcat (Concordet et al. (1991) Nucleic Acids Res. 19:4173–4180), containing human aldolase A gene sequences fused directly to CAT coding sequences, were provided by P. Maire. pSVβgal (Promega) contained bacterial lacZ coding sequences driven by the SV40 early region promoter and enhancer. Plasmids were purified by alkaline lysis and two rounds of cesium chloride density gradient centrifugation. Hep3B cells were transfected by electroporation with a Gene Pulser (Bio-Rad) at 260 V and 960 microfarads. Duplicate electroporations were pooled and split onto two 10 cm tissue culture dishes (Corning) containing 8 ml of media. […]
as §2, with “Reporter plasmids were cotransfected into Hep3B cells with pSVβgal, which was included as a control for variation in transfection efficiency.” left out

T2 sequence (Q16665 whole entry, chain 1 of 2): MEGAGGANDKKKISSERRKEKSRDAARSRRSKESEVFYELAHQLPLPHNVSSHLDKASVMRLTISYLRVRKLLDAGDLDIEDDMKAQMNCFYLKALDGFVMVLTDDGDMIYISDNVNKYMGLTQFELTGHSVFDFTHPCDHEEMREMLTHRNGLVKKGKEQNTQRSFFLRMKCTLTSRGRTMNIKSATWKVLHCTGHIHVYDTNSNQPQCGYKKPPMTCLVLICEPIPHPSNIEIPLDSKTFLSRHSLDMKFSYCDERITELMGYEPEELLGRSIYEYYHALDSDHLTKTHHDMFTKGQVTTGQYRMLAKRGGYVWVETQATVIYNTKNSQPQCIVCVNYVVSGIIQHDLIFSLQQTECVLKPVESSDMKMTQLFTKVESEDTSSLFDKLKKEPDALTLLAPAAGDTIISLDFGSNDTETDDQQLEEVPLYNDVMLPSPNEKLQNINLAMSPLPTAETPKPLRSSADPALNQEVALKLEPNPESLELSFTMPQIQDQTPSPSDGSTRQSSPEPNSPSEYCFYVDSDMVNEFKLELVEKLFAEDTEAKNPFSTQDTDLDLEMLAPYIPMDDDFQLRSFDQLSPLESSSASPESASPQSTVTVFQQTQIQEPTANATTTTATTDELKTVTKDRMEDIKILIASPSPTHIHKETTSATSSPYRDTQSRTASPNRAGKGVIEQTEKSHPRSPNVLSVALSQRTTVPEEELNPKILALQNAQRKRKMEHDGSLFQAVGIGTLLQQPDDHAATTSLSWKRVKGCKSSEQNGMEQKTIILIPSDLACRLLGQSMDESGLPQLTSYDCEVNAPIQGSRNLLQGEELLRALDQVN
T2 sequence (P27540 2-789, chain 2 of 2): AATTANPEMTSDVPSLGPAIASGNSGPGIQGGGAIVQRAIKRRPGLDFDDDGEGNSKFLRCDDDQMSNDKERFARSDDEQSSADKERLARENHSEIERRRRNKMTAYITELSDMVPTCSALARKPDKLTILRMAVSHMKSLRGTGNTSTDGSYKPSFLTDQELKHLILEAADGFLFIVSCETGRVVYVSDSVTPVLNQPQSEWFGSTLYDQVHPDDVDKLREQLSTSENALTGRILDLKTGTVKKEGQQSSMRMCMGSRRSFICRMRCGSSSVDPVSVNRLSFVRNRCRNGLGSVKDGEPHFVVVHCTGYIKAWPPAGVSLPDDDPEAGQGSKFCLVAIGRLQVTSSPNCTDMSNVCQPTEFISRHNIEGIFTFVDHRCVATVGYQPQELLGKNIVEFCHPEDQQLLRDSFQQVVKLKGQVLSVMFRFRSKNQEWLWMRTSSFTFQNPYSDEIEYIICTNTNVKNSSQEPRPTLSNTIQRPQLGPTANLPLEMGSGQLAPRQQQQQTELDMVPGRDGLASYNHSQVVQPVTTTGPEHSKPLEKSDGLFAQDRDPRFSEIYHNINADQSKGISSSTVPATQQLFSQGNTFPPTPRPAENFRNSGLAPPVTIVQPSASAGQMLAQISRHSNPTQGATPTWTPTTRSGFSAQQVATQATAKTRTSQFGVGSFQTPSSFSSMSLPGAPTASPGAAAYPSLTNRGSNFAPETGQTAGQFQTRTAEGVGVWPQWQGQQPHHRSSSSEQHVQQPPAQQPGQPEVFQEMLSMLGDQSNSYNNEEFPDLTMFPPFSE
T1 sequence (Q16665 whole entry, chain 1 of 2): as the sequence (Q16665 whole entry, chain 1 of 2) above
T1 sequence (P27540 2-789, chain 2 of 2): as the sequence (P27540 2-789, chain 2 of 2) above

B1: W18 (hEPO 3'-FS nt 1-18) (dsDNA)
DNA 1: GATCGCCCTACGTGCTGTCTCA
DNA 2: GATCTGAGACAGCACGTAGGGC
Does B1 bind [1]?
Result: binds

B2: mPFKL IVS-1 +336/+361 (dsDNA)
DNA 1: GATCCCGGGTAGCTGGCGTACGTGCTGCAG
DNA 2: CTGCAGCACGTACGCCAGCTACCCGGGATC
How did the activity [2] turn out when B2 was run?
Its activity is 47 fold induction.

B3: M18 (dsDNA)
DNA 1: GATCGCCCTAAAAGCTGTCTCA
DNA 2: GATCTGAGACAGCTTTTAGGGC
Does B3 bind [3]?
Result: no binding

B4: hPGK1 5'-FS -172/-194 (dsDNA)
DNA 1: GATCGTGAGACGTGCGGCTTCCGTTTG
DNA 2: CAAACGGAAGCCGCACGTCTCACGATC
For B4, which activity [4] is on record?
Its activity is 5.6 fold induction.

B5: hEPO 3'-FS +3065/+3097 (dsDNA)
DNA 1: GCCCTACGTGCTGTCTCACACAGCCTGTCTGA
DNA 2: TCAGACAGGCTGTGTGAGACAGCACGTAGGGC
With B5 as the binder, how does the activity [5] read?
The activity was 17 fold induction.
